The values below come from paper PMC2975675.

Test [1] deals with GST-Rabin8-L196A (human). Briefly: pull-down.
In test [2] the target is GST-Rabin8-F201A (human). Briefly: pull-down.

Consider “Rab8a (in vitro translated Rab8A-T22N or Rab8A-Q67L) (from UniProt P61006 1-207) (natural protein)”, for which the figures for the percent decrease of association against wild-type GST-Rabin8 in test [1] and in test [2] were 39% and 52%, respectively.
